A short description of the data set: label from the status in PepcDB records.
Take “MASRIIFLFSLLIMLGLATGLRGFSALLGFLAFLLLLIIVCQQYRRFLLLFLAILLFLCAWLYGVVQERQNETQLYPLVQSVEGTLISDPELDGDQFSATVKTTDGEKVLIRGRVQAEAEKDKLEMTQIGMVCSFVGQLEIPSEPTNPYQFNYRQFLDNNRIHWIFRTDLTQWQCSDQPTTLFMKVKRWRSEQLQDIYDLASDETAGLIAAFVYGDRSELDGELLSAYQSLGVIHLLAVSGLHVGLVVAAVFYLFIRLGVTRERAYELLLLFLPFYAIVAGAAPSVVRAVGMTMTVLLAFRFQKRLAPIIVLSLVAVIYIIIEPYAIFQLGFQLSFLTTCALLLSSSTLLQAINRPLLSLVKVTFLAQLISMPVILYHFFELPILSVPLNLLFVPVVSFVLLPLSFFVASSLLIHPGVAELPLFILEIIVPIVHQLLLVLNEQSFAAVVIGKPSLNSVFLMMISLIIGWAWLERKEPFKAWGAFSVVLFLIAWQIYSPYWSNEAIVTMIDVGQGDSFLIELPRRKAVYMIDTGGWVTYGEMEPWQERRNTRDIGEQVLTPILKGKGIRGIDKLILTHGHEDHFGGAEGLVRSIKVDEVVYGYKHAEYTEREMEVLSALKKAGASIRFVKSGDQWVIGSSSFRVLSPFGDEEELNDQSVVVYAVIEGVRFLFTGDLEEVGEKRLLEGYGDLKADVLKVGHHGSATSTTDPFLEAVHPVVALISAGRNNLYGHPNQDVLAALEQHETFVLRTDLHGAVKLTIRDGGIYARVMTTD”: the protein production entry was “failed”. Consider “MVHDTFMKMPEVRRRRQPTHVLVAGGNQGLGNMTAFLRAARTSTLFRYSVLCGANKQLYHEIASWQLPHIRPLPYINSPEEMNQLYDEADAVITKPGGVTISELLHKRIPIFTIDCLPGQERINWQYLRRNGLIYHLAEPGNGERKMIRLLTDDVEKNRFFRRVSDYFAGVEKTGLEHHHHHH”, for which the protein production entry is on record as “failed”. For the sequence “MKKILALILIIYSSSVFSHFSHFEPRIIHLYQDNQDTIILMRMPLPLILLDENWKGIDSKQNIPYTNKVNNSGYLIDPEKITKNLDDFKKSITPGYTIKKNGVVQNYHIESINIFNSDDRKPFSSLKTAEENFTSDVTIRPSATKLFDAGIDIKLRISNTSVINDDISISSILGDKFNAINKLANIINLHRDIANESVTTTLGILDYSSTHLPSMTQQLINGFSDGFIHILIGLDHVLFVLLLFYSAASFLKLLSLATAFTFGHSFSLFFGDNIAIASPIFIPGIELLIALTIAFTAIALLLKKAQHLGTTPLLVIGVIHGFGFSFVFNELEKEGAQTSITNLLSFNFGIEAGQLFIYALAFTMTILIKKQTVLVKKLPYYVSVCALVISAYWVVTRSMPLFDYIVI”, the protein production entry is on record as “failed”. For “MLLTIFSILAILCLVLYFYCMVILHLKNKGVYHPMTHAVSDYGIGQNKSYFQLAGLANTFRNLFLILSLIFWKYSFSFKKEAVLLLILAIIGYAGVALFPTDIEGSKRTVKGIIHLLFAILQFTALAIFIFNVTEVLKPLNATLFLIASYIKIVVEVGLYGLVIALFLPFVKKYFGLFERLFLYSSNLYILLLCVMMIRY” the value was “failed”; for “NFDTNMFKLENYVKEKYSLESLEIIPNEFDDTPTILSERISQVAAGVLRNLIDDNMKIGFSWGKSLSNLVDLIHSKSVRNVHFYPLAGGPSHIHAKYHVNTLIYEMSRKFHGECTFMNATIVQENKLLADGILQSRYFENLKNSWKDLDIAVVGIGDFSNKGKHQWLDMLTEDDFKELTKVKTVGEICCRFFDSKGKEVYENLQERTIAISLEDLKNIPQSLAVAYGDTKVSSILSVLRANLVNHLITDKNTILKVLEEDGDL”, “not failed”; for “MQMDSAQNQFNKRARLFEDPELKDAKVIYPSNPESTEPVNKGYGGSTAIQSFFKESKAEETPKVLKKRGRKKKNPNPEEVNSSTPGGDDSENRSKFYESASARKRTVTAEERERAVNAAKTFEPTNPYFRVVLRPSYLYRGCIMYLPSGFAEKYLSGISGFIKLQLGEKQWPVRCLYKAGRAKFSQGWYEFTLENNIGEGDVCVFELLRTRDFVLEVTAFRVNEYV”, “failed”. The entry for “YCEFLNNELRAHASDLLPTAPVPTMMLDRAWDEATLHNITQLIYDVRKDDALFRREISKPGAFDLMRKNYWDRREYSAVTLVGNETCNLAPLAELGFQIEVSQ” is “failed”; for “MDLFPEEIYVFTPDGRIIELPMGATAIDFAYAVHTDVGNSCVGVKVDRKPYPMSRPIDSGQTIEVITSASARPNATWLEHHHHHH” it is “failed”; for “MPDMPPTETNAIQDRLPRTTNSVEDTMALGARIAQGLSPGAVVALYGDLGTGKTHFVKGVAQGLGLPPAEVRSPTFTILAVHDDGDRPLYHFDAYRVQTPDEFVELGFETYVHGDGLTCIEWAGRVADLLPADTVPLQFHHVAPSTRRITLGAPDSSSSEDDR” it is “failed”.

For the origin of these results see a protein production outcome set (Wang et al. 2014).
